Residue numbers refer to the chain shown, from its start.
T1: TAMRA-labeled effector peptide cs221B (5(6)-TAMRA label coupled on resin after synthesis)
T1 construct: also called TAMRA-cs221B
T1 peptide: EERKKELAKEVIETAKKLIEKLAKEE

T2: TAMRA-labeled effector peptide cs207B (5(6)-TAMRA label coupled on resin after synthesis)
T2 construct: also called TAMRA-cs207B
T2 peptide: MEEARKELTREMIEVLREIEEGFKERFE

T3: TAMRA-labeled effector peptide cs094B (5(6)-TAMRA label coupled on resin after synthesis)
T3 construct: also called TAMRA-cs094B
T3 peptide: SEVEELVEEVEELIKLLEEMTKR

T4: TAMRA-labeled effector peptide cs074B (5(6)-TAMRA label coupled on resin after synthesis)
T4 construct: Chemically synthesized; also called TAMRA-cs074B
T4 peptide: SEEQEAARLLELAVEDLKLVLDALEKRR

T5: TAMRA-labeled effector peptide cs201B (5(6)-TAMRA label coupled on resin after synthesis)
T5 construct: also called TAMRA-cs201B
T5 peptide: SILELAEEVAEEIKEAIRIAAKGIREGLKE

B1: hinge cs221 (designed binder)
chain: MSGEMKEEIRRLAEELRERTKDEEVRELAREAARLAEESDDEEVKEVVKKALEAALKSKDEEVIRLLLLAAVLAAAAARSGSPEEKLEIAKKALELAMKSKDEEVIRLALLAAVLAARSDDEEVLKKVKEALEKAMESKDVEEIRERLREAVEVARAGSGSHHWGSTHHHHHH
notes: also called original cs221; parent hinge without cysteines
B2: variant cs221_lockedY (designed binder)
chain: B1 chain with L69C, L110C
modifications: disulfide bond between the two introduced cysteines (locks the hinge in state Y; oxidized with copper phenanthroline)
notes: also called cs221 locked Y hinge variant
B3: cs221_A114T (designed binder)
chain: B1 chain with A117T
notes: Point mutant of hinge cs221
B4: cs221_L66T (designed binder)
chain: B1 chain with L69T
notes: Point mutant of hinge cs221
B5: cs221_V111L (designed binder)
chain: B1 chain with V114L
notes: Point mutant of hinge cs221
B6: cs221_A73E (designed binder)
chain: B1 chain with A76E
notes: Point mutant of hinge cs221
B7: cs221_V111L_A114T (designed binder)
chain: B1 chain with V114L, A117T
notes: Double mutant of hinge cs221; also called cs221-mut
B8: hinge cs207 (designed binder)
chain: MSGTEDERRELEKVARKAIEAAREGNTDEVREQLQRALEIARESGSEEAFKLALEVVRRVAEVAARAGNVEAVKEALRVALEIVKEAMELIKDPEAIVRLALEAVRVVAEVAARAGAVEAVKVALRVALEIAKIAGTEEAVRLALEVVKRVSDIAKKAGNEDAVKEAEEVRKKIEEESGGSGSHHWGSTHHHHHH
notes: also called cs207A
B9: hinge cs094 (designed binder)
chain: MSGDEEERLRQEVEKAEKELEKLAKQSTDEEVRKMVREVAKQLRRLAEEAIRQKDDEALRQATEVVKMVQEAVKVAQKTTDQKVILLLLAVALVAIKVAQLAIRSDDTEALRLARIVIRAVQLLVKLVQKTTDPEVRRTALRVAELLAKLAKEAIERNDEEALREASEVVKEVQELVKEAEKSTDEEEIRELLQRAEERIREAQERIREGSGSHHWGSTHHHHHH
B10: swapped target hinge csw20 (designed binder)
chain: MSGMEEVKELVEKAEELAKEAEELIKKAKKTGNPELLKEALRKLKEAVELAKEAVELDPEHEEAIELLARLAEKLLEVAKLLIELAKKTGNPELLKEALRALKEAREALRLAAEHAPEDAKLLARLAARLAELALLIAKILIELAKKTGNPELLLKALKVLTLAVEAVEAALEADPRLKEAVRVAKELAEVLKELAKLAKELAKKTGNEELKEAAKEAEEVAKRAEELAREAEGSGSHHWGSTHHHHHH
B11: hinge cs201 (designed binder)
chain: MSGDEEVQEAVERAEELREEAEELIKKARKTGDPELLRKALEALKEAVRAVREAIKRNPDNEEAIKTALRLARELRKVAKELIERARKTGDAELLKKALEAARVAVEAVRLAAEYNKENAEKMAELLVELAELAREVADVLIELAEKTGDPELLKKALEVLEEAVEAVRLAIEYDPDHEEAVETAKRLAEELRKVAELLEERAKETGDPELQELAKRAKEVADRARELAKKSNGSGSHHWGSTHHHHHH
notes: also called unlabeled hinge cs201

Assays:
[1] = biological target: T1, TAMRA-labeled effector peptide cs221B; assay: fluorescence polarization titration; TAMRA-peptide constant, hinge varied
Source text: (§1) We used our hinge design approach to generate hinge-peptide pairs that span a wide structural space (FIGS. 1D, 2A, 6, 7). We experimentally tested multiple rounds of designs, using both DHRs (21) and helical junctions (22) as input scaffolds, and improving individual steps of the design pipeline between iterations. Designs for which hinge and GFP-fused peptide were soluble and interacted as judged by size exclusion chromatography (SEC, FIGS. 7-8) were selected for further characterization by fluorescence polarization (FP). […] To circumvent the bottleneck of finding soluble peptide sequences, we also sought to design hinges that bind to a given target peptide. Starting from design cs201, we used a modified version of our design pipeline to redesign the hinge to bind peptides cs074B or cs221B, respectively, which have similar hydrophobic fingerprints as the original target peptide cs201B.
(§2) All FP measurements were performed at 25° C. in 96-well plates (Corning 3686) using a Synergy Neo2™ plate reader and a 530/590 nm filter cube. The buffer for all FP measurements was 20 mM Tris-HCl, 100 mM NaCl, 0.05% v/v TWEEN20 at pH 8. Titrations were carried out in 96-well format, with 4 replicates per plate and 24 data points per titration (23 steps of two-fold serial dilution of hinges in the presence of TAMRA-labeled peptide at a constant concentration between 0.1 nM and 1 nM) with a final sample volume of 80 μl per well. Titration plates were incubated overnight at room temperature before measuring to ensure complete equilibration. The polarization signal S (as calculated by the Neo2™ software) was fitted to the equation

[2] = biological target: T1, TAMRA-labeled effector peptide cs221B; assay: fluorescence polarization kinetics; slope of kapp against hinge concentration
Experimental: as §2
(§3) For FP kinetics experiments a 2× peptide solution and 8 different 2× hinge solutions at different concentrations were prepared separately. 40 μl of each hinge solution were mixed with 40 μl peptide solution using a multichannel pipet and the measurement was started immediately after mixing. Polarization signals S at each concentration were fitted individually to the equation

[3] = biological target: T1, TAMRA-labeled effector peptide cs221B; assay: fluorescence polarization kinetics
Source text: To test the effect of the conformational pre-equilibrium on effector binding, we introduced disulfide “staples” that lock the hinge in one conformation. Using FP we analyzed peptide binding to stapled versions of hinge cs221 (FIG. 5A,B). […] Using the pre-equilibrium model described above, the observed association rates provide an estimate of the fraction of hinge that is in state Y in absence of the peptide: a 200-fold higher observed on rate for the locked Y variant indicates a 200-fold higher fraction of hinge in state Y compared to the original hinge. Assuming that the locked Y variant is 100% in state Y and assuming that the microscopic rate constant k₂ is identical for the locked Y hinge and state Y of the original hinge, this would indicate that the original hinge is 99.5% in state X and 0.5% in state Y at equilibrium.
as §3

[4] = biological target: T2, TAMRA-labeled effector peptide cs207B; assay: fluorescence polarization titration; TAMRA-peptide constant, hinge varied
Source text: as §1, §2

[5] = biological target: T3, TAMRA-labeled effector peptide cs094B; assay: as above
Source text: as §1, §2

[6] = biological target: T3, TAMRA-labeled effector peptide cs094B; assay: fluorescence polarization kinetics; slope of kapp against hinge concentration
Experimental: as §2, §3

[7] = biological target: T1, TAMRA-labeled effector peptide cs221B; assay: FP titration, 1 nM peptide, hinge varied
Experimental: (§4) FIG. 10. Redesign of hinges to bind other target peptides. An experimentally tested hinge (top, cs201) is redesigned using a one-sided two-state design approach to bind to different target peptides. Hinges csw13 and csw20 are designed to bind to peptides cs221B and cs074B, respectively, while having a backbone conformation that is similar to the parent cs201 that binds cs201B. Left: design models, right: FP titrations using 1 nM peptide (cs201B, cs221B, cs074B, js007B) and varying concentrations of hinge (from top to bottom: cs201, csw13, csw20). csw13 is an example of a successful orthogonal redesign that specifically binds the new target peptide cs221B while not binding the parent target peptide cs201B or the off-target peptides cs074B or js007B. csw20 is a less orthogonal example that binds the new target peptide cs074B most strongly but still binds to the parent-target peptide cs201B and to the off-target peptide cs221B albeit weaker than the new target.
as §2

[8] = biological target: T4, TAMRA-labeled effector peptide cs074B; assay: FP titration, 1 nM peptide, hinge varied
Experimental: as §4, §2

[9] = biological target: T5, TAMRA-labeled effector peptide cs201B; assay: FP titration, 1 nM peptide, hinge varied
Experimental: as §4, §2

[10] = biological target: T5, TAMRA-labeled effector peptide cs201B; assay: fluorescence polarization titration; TAMRA-peptide constant, hinge varied
Source text: as §1, §2

[11] = biological target: T5, TAMRA-labeled effector peptide cs201B; assay: fluorescence polarization kinetics; slope of kapp against hinge concentration
Experimental: as §2, §3

Binder	Kd [1]	kon [2]	other results
B1	2 nM	3400 M⁻¹ s⁻¹	
B2	12 nM	790000 M⁻¹ s⁻¹	fold higher association rate than the original hinge cs221 [3]: 200 fold
B3	0.2 nM	27700 M⁻¹ s⁻¹	
B4	38.3 nM	2700 M⁻¹ s⁻¹	
B5	0.3 nM	24300 M⁻¹ s⁻¹	
B6	4.9 nM	1900 M⁻¹ s⁻¹	
B7	0.1 nM	76200 M⁻¹ s⁻¹	fold higher on rate than the original cs221 [3]: 22 fold
B8			Kd [4]: 820 nM
B9			Kd [5]: 830 nM; kon [6]: 9400 M⁻¹ s⁻¹
B10			binding result [7]: binds; binding result [8]: binds; binding result [9]: binds
B11			Kd [10]: 22 nM; kon [11]: 6700 M⁻¹ s⁻¹
